Residue numbers refer to the chain shown, from its start. One block for each binder: values may come before it.
Columns and labels:
Experiment in all cases: ELISA
[1] = molecular target: T1, human EphA1 extracellular region-SEAP-His protein (human, UniProt P21709 26-547)
T1 construct: extracellular domain; also called hEphA1-SEAP-His
T1 sequence (looked up): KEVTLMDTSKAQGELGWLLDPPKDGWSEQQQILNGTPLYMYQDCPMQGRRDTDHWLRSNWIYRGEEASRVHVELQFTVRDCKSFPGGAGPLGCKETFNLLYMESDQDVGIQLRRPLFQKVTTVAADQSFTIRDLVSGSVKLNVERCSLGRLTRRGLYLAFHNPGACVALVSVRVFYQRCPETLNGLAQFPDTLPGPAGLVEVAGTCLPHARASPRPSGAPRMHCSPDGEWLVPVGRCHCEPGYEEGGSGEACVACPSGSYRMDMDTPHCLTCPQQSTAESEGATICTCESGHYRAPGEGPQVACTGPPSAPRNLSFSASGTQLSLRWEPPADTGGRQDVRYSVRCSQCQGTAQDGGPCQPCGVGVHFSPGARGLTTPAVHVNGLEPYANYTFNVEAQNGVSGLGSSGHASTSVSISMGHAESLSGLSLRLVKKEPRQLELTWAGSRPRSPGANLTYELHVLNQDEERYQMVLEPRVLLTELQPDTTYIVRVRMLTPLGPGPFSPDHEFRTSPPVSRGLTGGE

[2] = molecular target: T2, human EphA4 extracellular region-SEAP-His protein (human, UniProt P54764 20-547)
T2 construct: also called hEphA4-SEAP-His

[3] = molecular target: T3, human EphA2 extracellular region-SEAP-His protein (human, UniProt P29317 24-537)
T3 construct: extracellular domain; also called hEphA2-SEAP-His

[4] = molecular target: T4, human EphB1 extracellular region-SEAP-His protein (human, UniProt P54762 18-540)
T4 construct: extracellular domain; also called hEphB1-SEAP-His
T4 sequence (looked up): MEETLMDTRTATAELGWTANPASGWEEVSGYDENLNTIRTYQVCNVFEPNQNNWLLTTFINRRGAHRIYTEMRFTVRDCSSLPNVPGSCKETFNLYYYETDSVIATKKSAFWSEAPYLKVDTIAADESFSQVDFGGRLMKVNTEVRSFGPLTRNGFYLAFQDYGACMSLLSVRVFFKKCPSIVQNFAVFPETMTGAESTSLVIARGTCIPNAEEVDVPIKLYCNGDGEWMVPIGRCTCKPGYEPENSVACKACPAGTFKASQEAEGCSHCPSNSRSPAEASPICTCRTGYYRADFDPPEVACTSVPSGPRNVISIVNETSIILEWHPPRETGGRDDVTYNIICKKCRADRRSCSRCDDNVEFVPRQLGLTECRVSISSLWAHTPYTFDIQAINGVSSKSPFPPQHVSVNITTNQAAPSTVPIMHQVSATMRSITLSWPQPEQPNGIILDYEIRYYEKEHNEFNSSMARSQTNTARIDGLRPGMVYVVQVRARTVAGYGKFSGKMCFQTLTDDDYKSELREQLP

[5] = molecular target: T5, human EphA3 extracellular region-SEAP-His protein (human, UniProt P29320 21-541)
T5 construct: extracellular domain; also called hEphA3-SEAP-His
T5 sequence (looked up): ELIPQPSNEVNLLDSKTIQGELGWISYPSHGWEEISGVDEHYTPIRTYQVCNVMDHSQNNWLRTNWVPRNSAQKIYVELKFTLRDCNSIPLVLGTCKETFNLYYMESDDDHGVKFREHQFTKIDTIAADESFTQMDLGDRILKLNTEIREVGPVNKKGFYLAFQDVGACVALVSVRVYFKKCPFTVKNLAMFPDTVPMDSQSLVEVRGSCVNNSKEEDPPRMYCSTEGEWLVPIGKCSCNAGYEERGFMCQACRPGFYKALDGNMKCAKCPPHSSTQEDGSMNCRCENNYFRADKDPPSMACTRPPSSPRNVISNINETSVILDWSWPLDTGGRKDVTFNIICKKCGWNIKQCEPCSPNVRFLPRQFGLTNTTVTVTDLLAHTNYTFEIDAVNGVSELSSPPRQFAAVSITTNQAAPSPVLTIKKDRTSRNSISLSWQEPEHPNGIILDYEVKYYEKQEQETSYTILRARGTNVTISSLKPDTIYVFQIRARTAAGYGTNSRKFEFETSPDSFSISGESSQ

[6] = molecular target: T6, human EphA8 extracellular region-SEAP-His protein (human, UniProt P29322 28-542)
T6 construct: extracellular domain; also called hEphA8-SEAP-His
T6 sequence (looked up): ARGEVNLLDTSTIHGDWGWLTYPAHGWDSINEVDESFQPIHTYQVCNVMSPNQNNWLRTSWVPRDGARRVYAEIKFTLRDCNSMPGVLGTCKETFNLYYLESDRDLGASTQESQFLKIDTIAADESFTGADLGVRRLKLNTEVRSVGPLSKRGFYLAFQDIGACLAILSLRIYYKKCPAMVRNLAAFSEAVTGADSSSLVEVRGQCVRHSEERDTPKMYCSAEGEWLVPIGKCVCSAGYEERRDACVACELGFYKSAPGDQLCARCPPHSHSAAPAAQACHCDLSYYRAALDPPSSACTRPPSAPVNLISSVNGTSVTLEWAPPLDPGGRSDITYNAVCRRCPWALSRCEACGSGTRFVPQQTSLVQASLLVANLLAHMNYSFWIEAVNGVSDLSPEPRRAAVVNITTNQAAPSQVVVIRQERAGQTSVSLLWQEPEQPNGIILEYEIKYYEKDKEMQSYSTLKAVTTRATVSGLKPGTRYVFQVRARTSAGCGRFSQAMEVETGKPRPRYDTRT

T2 sequence (P54764 20-547): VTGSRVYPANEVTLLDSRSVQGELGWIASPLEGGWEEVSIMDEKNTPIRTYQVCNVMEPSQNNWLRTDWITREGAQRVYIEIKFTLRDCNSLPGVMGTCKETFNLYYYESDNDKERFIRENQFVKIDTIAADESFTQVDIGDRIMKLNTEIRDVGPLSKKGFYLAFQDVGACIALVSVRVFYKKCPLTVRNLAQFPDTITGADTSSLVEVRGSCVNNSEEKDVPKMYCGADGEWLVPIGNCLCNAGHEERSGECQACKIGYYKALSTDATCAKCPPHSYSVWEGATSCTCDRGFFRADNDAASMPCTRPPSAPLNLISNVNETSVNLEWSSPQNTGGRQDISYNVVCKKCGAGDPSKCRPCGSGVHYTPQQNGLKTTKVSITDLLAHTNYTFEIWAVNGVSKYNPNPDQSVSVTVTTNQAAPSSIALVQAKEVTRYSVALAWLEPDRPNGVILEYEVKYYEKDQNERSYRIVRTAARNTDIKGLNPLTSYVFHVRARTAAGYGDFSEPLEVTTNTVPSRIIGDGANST
T3 sequence (P29317 24-537): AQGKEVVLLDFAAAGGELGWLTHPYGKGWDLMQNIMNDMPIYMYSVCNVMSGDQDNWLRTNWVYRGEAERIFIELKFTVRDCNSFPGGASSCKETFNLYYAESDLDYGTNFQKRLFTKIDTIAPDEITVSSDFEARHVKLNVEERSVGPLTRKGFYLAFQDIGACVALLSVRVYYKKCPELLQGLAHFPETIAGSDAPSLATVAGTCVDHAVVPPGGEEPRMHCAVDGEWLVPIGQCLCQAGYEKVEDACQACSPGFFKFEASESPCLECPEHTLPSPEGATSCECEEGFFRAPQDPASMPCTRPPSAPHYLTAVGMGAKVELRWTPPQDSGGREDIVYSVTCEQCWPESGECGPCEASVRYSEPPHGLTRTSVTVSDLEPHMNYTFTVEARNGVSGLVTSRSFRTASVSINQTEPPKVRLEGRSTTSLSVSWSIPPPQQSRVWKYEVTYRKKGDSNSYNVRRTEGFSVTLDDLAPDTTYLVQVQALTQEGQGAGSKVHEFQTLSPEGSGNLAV

A450 as % of hEphA4-SEAP-His [1]: 6.7% | A450 as % of hEphA4-SEAP-His [2]: 100% | A450 as % of hEphA4-SEAP-His [3]: 6.5% | A450 as % of hEphA4-SEAP-His [4]: 6.5% | A450 as % of hEphA4-SEAP-His [5]: 6.6% | A450 as % of hEphA4-SEAP-His [6]: 6.6%
B1: humanized antibody No. 145 (antibody, human IgG2)
heavy: QVQLVQSGSELKKPGASVKVSCKASGYTFTDYSMHWVRQAPGQGLKWMGWINTETGEPTYADDFKGRFVFSLDTSVSTAYLQISSLKAEDTAVYYCARIPLYYYGSRYWYFDVWGQGTTVTVSSASTKGPSVFPLAPSSRSTSESTAALGCLVKDYFPEPVTVSWNSGALTSGVHTFPAVLQSSGLYSLSSVVTVPSSNFGTQTYTCNVDHKPSNTKVDKTVERKSCVECPPCPAPPAAAPSVFLFPPKPKDTLMISRTPEVTCVVVDVSHEDPEVQFNWYVDGVEVHNAKTKPREEQFNSTFRVVSVLTVVHQDWLNGKEYKCKVSNKGLPAPIEKTISKTKGQPREPQVYTLPPSREEMTKNQVSLTCLVKGFYPSDIAVEWESNGQPENNYKTTPPMLDSDGSFFLYSKLTVDKSRWQQGNVFSCSVMHEALHNHYTQKSLSLSPG
light: DIQMTQSPSSLSASVGDRVTITCRASENIYRNLAWYQQKPGKAPKLLLYAATNLADGVPSRFSGSGSGTDYTLTISSLQSEDFATYYCQHFWGTPWTFGQGTKVEIKRTVAAPSVFIFPPSDEQLKSGTASVVCLLNNFYPREAKVQWKVDNALQSGNSQESVTEQDSKDSTYSLSSTLTLSKADYEKHKVYACEVTHQGLSSPVTKSFNRGEC
notes: human Ig kappa; also called L1-5/HK2

A450 as % of hEphA4-SEAP-His [1]: 5.1% | A450 as % of hEphA4-SEAP-His [2]: 100% | A450 as % of hEphA4-SEAP-His [3]: 5.2% | A450 as % of hEphA4-SEAP-His [4]: 4.9% | A450 as % of hEphA4-SEAP-His [5]: 5.2% | A450 as % of hEphA4-SEAP-His [6]: 5.4%
B2: humanized antibody No. 90 (antibody, human IgG1, kappa)
heavy: QVQLVQSGSELKKPGASVKVSCKASGYTFTDYSMHWVRQAPGQGLEWMGWINTETGEPTYADDFKGRFVFSLDTSVSTAYLQISSLKAEDTAVYYCARIPLYYYGSRYWYFDVWGQGTTVTVSSASTKGPSVFPLAPSSKSTSGGTAALGCLVKDYFPEPVTVSWNSGALTSGVHTFPAVLQSSGLYSLSSVVTVPSSSLGTQTYICNVNHKPSNTKVDKRVEPKSCDKTHTCPPCPAPPAAAPSVFLFPPKPKDTLMISRTPEVTCVVVDVSHEDPEVQFNWYVDGVEVHNAKTKPREEQFNSTFRVVSVLTVVHQDWLNGKEYKCKVSNKGLPAPIEKTISKTKGQPREPQVYTLPPSREEMTKNQVSLTCLVKGFYPSDIAVEWESNGQPENNYKTTPPMLDSDGSFFLYSKLTVDKSRWQQGNVFSCSVMHEALHNHYTQKSLSLSPG
light: B1 light with K45Q, S80P
notes: human Ig kappa; also called L1-6/HK1

A450 as % of hEphA4-SEAP-His [1]: 5.3% | A450 as % of hEphA4-SEAP-His [2]: 100% | A450 as % of hEphA4-SEAP-His [3]: 5.2% | A450 as % of hEphA4-SEAP-His [4]: 5.4% | A450 as % of hEphA4-SEAP-His [5]: 5.3% | A450 as % of hEphA4-SEAP-His [6]: 5.5%
B3: humanized antibody No. 141 (antibody, human IgG2)
heavy: B1 heavy with K46E
light: B1 light with L48V, S80P
notes: human Ig kappa; also called L1-4/HK1

A450 as % of hEphA4-SEAP-His [1]: 5.7% | A450 as % of hEphA4-SEAP-His [2]: 100% | A450 as % of hEphA4-SEAP-His [3]: 5.9% | A450 as % of hEphA4-SEAP-His [4]: 5.5% | A450 as % of hEphA4-SEAP-His [5]: 5.9% | A450 as % of hEphA4-SEAP-His [6]: 6%
B4: humanized antibody No. 139 (antibody, human IgG2)
heavy: B1 heavy with K46E, D62Q, D63G, K65T
light: B1 light with L48V, S80P
notes: human Ig kappa; also called L1-4/HA1

A450 as % of hEphA4-SEAP-His [1]: 5.8% | A450 as % of hEphA4-SEAP-His [2]: 100% | A450 as % of hEphA4-SEAP-His [3]: 6.1% | A450 as % of hEphA4-SEAP-His [4]: 6.6% | A450 as % of hEphA4-SEAP-His [5]: 6.6% | A450 as % of hEphA4-SEAP-His [6]: 6.2%
B5: humanized antibody No. 91 (antibody, human IgG1, kappa)
heavy: B2 heavy with E46K
light: B1 light with K45Q, S80P
notes: human Ig kappa; also called L1-6/HK2

A450 as % of hEphA4-SEAP-His [1]: 5.2% | A450 as % of hEphA4-SEAP-His [2]: 100% | A450 as % of hEphA4-SEAP-His [3]: 5% | A450 as % of hEphA4-SEAP-His [4]: 5.1% | A450 as % of hEphA4-SEAP-His [5]: 4.9% | A450 as % of hEphA4-SEAP-His [6]: 5.4%
B6: humanized antibody No. 138 (antibody, human IgG2)
heavy: B1 heavy with V2I, D62Q, D63G, K65T
light: B1 light with L48V, S80P
notes: human Ig kappa; also called L1-4/HA4
